The record followed here is doi:10.1101/160580 (bioRxiv, 2017).

The data set “NMR relaxation” concerns the molecule itself. Description: NMR relaxation.
Data set [1] concerns the molecule itself. Description: cell-based or functional assay.

B1: sperm lysin from red abalone (Haliotis rufescens), wild type (natural protein)
chain: RSWHYVEPKFLNKAFEVALKVQIIAGFDRGLVKWLRVHGRTLSTVQKKALYFVNRRYMQTHWANYMLWINKKIDALGRTPVVGDYTRLGAEIGRRIDMAYFYDFLKDKNMIPKYLPYMEEINRMRPADVPVKYMGK
For the protein B1, the binding result in “NMR relaxation” is “binds”.

B2: F104A lysin (monomeric mutant of red abalone sperm lysin) (natural protein)
chain: RSWHYVEPKFLNKAFEVALKVQIIAGFDRGLVKWLRVHGRTLSTVQKKALYFVNRRYMQTHWANYMLWINKKIDALGRTPVVGDYTRLGAEIGRRIDMAYFYDALKDKNMIPKYLPYMEEINRMRPADVPVKYMGK
B2: in data set [1], the “in vitro VE dissolution (turbidity at 640 nm), F104A lysin against WT lysin” value is at least 4 fold.
